In patent US20040087497A1 (Bristol-Myers Squibb, published 2004):
Starred links: 1 amine or outer side, 2 acyl side, 3 side chain; linkers in the order of their positions; H or OH if unused. Non-standard residues stand in square brackets, D forms with d. Suc = O=C(CCC(=O)[*:2])[*:1]; Dox = doxorubicin; βAla = NCCC(=O)O

Legend:
Experiment in all cases: cell-based or functional assay
[1] = molecular target: T1, human CD10 (human, UniProt P08473 2-750)
[2] = molecular target: T1, human CD10; remark: listed apart in the source
[3] = molecular target: T1, human CD10; remark: listed apart in the source
[4] = molecular target: Prostate Specific Antigen (PSA) (human, UniProt P07288 25-261)
Chain of Prostate Specific Antigen (PSA) (P07288 25-261 limits assumed): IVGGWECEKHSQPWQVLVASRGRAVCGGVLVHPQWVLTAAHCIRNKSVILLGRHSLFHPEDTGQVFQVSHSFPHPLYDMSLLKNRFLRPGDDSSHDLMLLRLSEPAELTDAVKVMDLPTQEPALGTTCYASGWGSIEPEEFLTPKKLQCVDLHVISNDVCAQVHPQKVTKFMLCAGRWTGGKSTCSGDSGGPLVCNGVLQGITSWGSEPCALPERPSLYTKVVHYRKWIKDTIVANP

[5] = molecular target: T1, human CD10; remark: listed apart in the source
[6] = molecular target: T1, human CD10; remark: listed apart in the source
[7] = molecular target: T1, human CD10; remark: listed apart in the source
[8] = molecular target: T1, human CD10; remark: listed apart in the source

T1 sequence (P08473 2-750): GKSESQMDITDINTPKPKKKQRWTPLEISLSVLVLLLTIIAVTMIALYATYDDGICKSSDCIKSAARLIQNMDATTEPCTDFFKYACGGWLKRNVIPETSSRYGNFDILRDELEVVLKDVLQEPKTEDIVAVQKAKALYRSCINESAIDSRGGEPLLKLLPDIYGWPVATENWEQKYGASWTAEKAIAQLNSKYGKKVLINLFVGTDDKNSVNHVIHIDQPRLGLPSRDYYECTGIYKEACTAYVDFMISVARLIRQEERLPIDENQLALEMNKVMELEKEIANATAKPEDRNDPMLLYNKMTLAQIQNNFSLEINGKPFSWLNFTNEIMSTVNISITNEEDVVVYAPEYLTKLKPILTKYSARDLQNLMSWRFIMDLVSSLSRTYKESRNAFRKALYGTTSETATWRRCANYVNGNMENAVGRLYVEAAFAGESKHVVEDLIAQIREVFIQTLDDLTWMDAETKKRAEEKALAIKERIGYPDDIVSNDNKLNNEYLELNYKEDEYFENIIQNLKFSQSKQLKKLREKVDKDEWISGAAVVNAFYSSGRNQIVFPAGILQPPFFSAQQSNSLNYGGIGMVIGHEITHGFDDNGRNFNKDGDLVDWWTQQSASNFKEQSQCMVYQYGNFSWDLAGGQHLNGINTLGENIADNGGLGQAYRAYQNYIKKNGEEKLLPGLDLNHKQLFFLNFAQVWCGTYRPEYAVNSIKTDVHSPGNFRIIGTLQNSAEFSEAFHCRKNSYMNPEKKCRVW

B1: Suc-βAla-Ile-Ala-Leu-Dox (peptide)
peptide: Suc-[βAla]IAL-Dox
With B1 the “difference between IC50 of Dox and of Suc-βAla-Ile-Ala-Leu-Dox, CD10 transfected CHO cells” value [1] was roughly 16 fold, the “Ratio of IC50 Suc-β-Ala-Ile-Ala-Leu/Dox, CD10 transfected CHO Clone #7” value [2] was 17 ratio and the “Ratio of IC50 Suc-β-Ala-Ile-Ala-Leu/Dox, CD10 transfected CHO Clone #8” value [2] was 15 ratio. For the same binder, the “Ratio of IC50 Suc-β-Ala-Ile-Ala-Leu/Dox, CD10 transfected CHO clone DB4” value [2] was 14 ratio, the “Ratio of IC50 Suc-β-Ala-Ile-Ala-Leu/Dox, LnCap cells” value [2] was 3 ratio and the “IC50, 3H-thymidine proliferation, LnCAP cells (CD10+ PSA+)” value [3] was 150 µM. The “IC50, 3H-thymidine proliferation, 22RV1 cells (CD10- PSA+)” value [4] was 10800 µM, the “IC50 on LNCaP cells (CD10pos) with 0 nM phosphoramidon” value [5] was 0.24 µM and the “IC50 on LNCaP cells (CD10pos) with 30 nM phosphoramidon” value [5] was 1.3 µM. The “IC50 on LNCaP cells (CD10pos) with 100 nM phosphoramidon” value [5] was 3.3 µM, the “IC50 on LNCaP cells (CD10pos) with 300 nM phosphoramidon” value [5] was 7.7 µM and the “IC50 on LNCaP cells (CD10pos) with 1000 nM phosphoramidon” value [5] was 11.3 µM. The “IC50 on LNCaP cells (CD10pos) with 3000 nM phosphoramidon” value [5] was 15.4 µM, the “IC50 on Ramos cells (CD10pos) with 0 nM phosphoramidon” value [5] was 0.51 µM and the “IC50 on Ramos cells (CD10pos) with 30 nM phosphoramidon” value [5] was 2.1 µM. The “IC50 on Ramos cells (CD10pos) with 100 nM phosphoramidon” value [5] was 5.3 µM, the “IC50 on Ramos cells (CD10pos) with 300 nM phosphoramidon” value [5] was 8.1 µM and the “IC50 on Ramos cells (CD10pos) with 1000 nM phosphoramidon” value [5] was 9.7 µM. For the same binder, the “IC50 on Ramos cells (CD10pos) with 3000 nM phosphoramidon” value [5] was 10.5 µM, the “IC50, 3H thymidine proliferation, CD10 transfected CHO Clone #3” value [6] was 19000 µM and the “IC50, 3H thymidine proliferation, CD10 transfected CHO Clone #5” value [6] was 19000 µM. The “IC50, 3H thymidine proliferation, CD10 transfected CHO Clone #7” value [6] was 11000 µM, the “IC50, 3H thymidine proliferation, CD10 transfected CHO Clone #8” value [6] was 8400 µM and the “IC50, 3H thymidine proliferation, CD10 transfected CHO clone DB4” value [6] was 4200 µM. The “IC50, 3H thymidine proliferation, LnCap cells (CD10 positive)” value [6] was 390 µM, the “IC50, 3H thymidine proliferation, Ramos cells” value [6] was 440 µM and the “IC50 on LNCaP cells (CD10pos) with DL-Thiorphan 0” value [7] was 0.51 µM. For the same binder, the “IC50 on LNCaP cells (CD10pos) with DL-Thiorphan 30” value [7] was 2.1 µM, the “IC50 on LNCaP cells (CD10pos) with DL-Thiorphan 100” value [7] was 5.3 µM and the “IC50 on LNCaP cells (CD10pos) with DL-Thiorphan 300” value [7] was 8.1 µM. For the same binder, the “IC50 on LNCaP cells (CD10pos) with DL-Thiorphan 1000” value [7] was 9.7 µM, the “IC50 on LNCaP cells (CD10pos) with DL-Thiorphan 3000” value [7] was 10.5 µM and the “IC50 on Ramos cells (CD10pos) with DL-Thiorphan 0” value [7] was 0.25 µM. For the same binder, the “IC50 on Ramos cells (CD10pos) with DL-Thiorphan 30” value [7] was 0.27 µM, the “IC50 on Ramos cells (CD10pos) with DL-Thiorphan 100” value [7] was 0.31 µM and the “IC50 on Ramos cells (CD10pos) with DL-Thiorphan 300” value [7] was 0.28 µM. For the same binder, the “IC50 on Ramos cells (CD10pos) with DL-Thiorphan 1000” value [7] was 0.44 µM, the “IC50 on Ramos cells (CD10pos) with DL-Thiorphan 3000” value [7] was 1.1 µM and the “IC50, proliferation of HL60 cells with supernatant of compound-treated CHO Clone 8 (CD10 Pos.)” value [8] was 2.7 µM. For the same binder, the “IC50, proliferation of HL60 cells with supernatant of compound-treated CHO Clone DB4 (CD10 Pos.)” value [8] was 5.4 µM.

B2: Suc-Ile-Ala-Leu-Dox (peptide)
peptide: Suc-Ile-Ala-Leu-Dox
B2 was tested, and the “IC50, 3H-thymidine proliferation, LnCAP cells (CD10+ PSA+)” value [3] was 170 µM and the “IC50, 3H-thymidine proliferation, 22RV1 cells (CD10- PSA+)” value [4] was 14000 µM.

B3: Suc-Leu-Ala-Gly-Dox (peptide)
peptide: Suc-Leu-Ala-Gly-Dox
For B3, the “IC50, proliferation of HL60 cells with supernatant of compound-treated CHO Clone 8 (CD10 Pos.)” value [8] was greater than 25 µM and the “IC50, proliferation of HL60 cells with supernatant of compound-treated CHO Clone DB4 (CD10 Pos.)” value [8] was greater than 25 µM.

B4: Suc-βAla-Leu-Ala-Leu-Dox (peptide)
peptide: Suc-[βAla]LAL-Dox
For B4, the “shift of IC50 on LNCaP cells treated with 100 nM of phosphoramidon” value [1] was 7 fold, the “IC50, 3H thymidine proliferation, CD10 transfected CHO Clone #3” value [6] was 19000 µM and the “IC50, 3H thymidine proliferation, CD10 transfected CHO Clone #5” value [6] was 24000 µM. The “IC50, 3H thymidine proliferation, CD10 transfected CHO Clone #7” value [6] was 13000 µM, the “IC50, 3H thymidine proliferation, CD10 transfected CHO Clone #8” value [6] was 10000 µM and the “IC50, 3H thymidine proliferation, CD10 transfected CHO clone DB4” value [6] was 5400 µM. The “IC50, 3H thymidine proliferation, LnCap cells (CD10 positive)” value [6] was 510 µM and the “IC50, 3H thymidine proliferation, Ramos cells” value [6] was 840 µM.
